Experimental data from article PMC3616717.

T1: human F-box-containing DNA helicase FBH1, FLAG-tagged and biotinylated, non-ubiquitylated (human), Q8NFZ0
T1 chain: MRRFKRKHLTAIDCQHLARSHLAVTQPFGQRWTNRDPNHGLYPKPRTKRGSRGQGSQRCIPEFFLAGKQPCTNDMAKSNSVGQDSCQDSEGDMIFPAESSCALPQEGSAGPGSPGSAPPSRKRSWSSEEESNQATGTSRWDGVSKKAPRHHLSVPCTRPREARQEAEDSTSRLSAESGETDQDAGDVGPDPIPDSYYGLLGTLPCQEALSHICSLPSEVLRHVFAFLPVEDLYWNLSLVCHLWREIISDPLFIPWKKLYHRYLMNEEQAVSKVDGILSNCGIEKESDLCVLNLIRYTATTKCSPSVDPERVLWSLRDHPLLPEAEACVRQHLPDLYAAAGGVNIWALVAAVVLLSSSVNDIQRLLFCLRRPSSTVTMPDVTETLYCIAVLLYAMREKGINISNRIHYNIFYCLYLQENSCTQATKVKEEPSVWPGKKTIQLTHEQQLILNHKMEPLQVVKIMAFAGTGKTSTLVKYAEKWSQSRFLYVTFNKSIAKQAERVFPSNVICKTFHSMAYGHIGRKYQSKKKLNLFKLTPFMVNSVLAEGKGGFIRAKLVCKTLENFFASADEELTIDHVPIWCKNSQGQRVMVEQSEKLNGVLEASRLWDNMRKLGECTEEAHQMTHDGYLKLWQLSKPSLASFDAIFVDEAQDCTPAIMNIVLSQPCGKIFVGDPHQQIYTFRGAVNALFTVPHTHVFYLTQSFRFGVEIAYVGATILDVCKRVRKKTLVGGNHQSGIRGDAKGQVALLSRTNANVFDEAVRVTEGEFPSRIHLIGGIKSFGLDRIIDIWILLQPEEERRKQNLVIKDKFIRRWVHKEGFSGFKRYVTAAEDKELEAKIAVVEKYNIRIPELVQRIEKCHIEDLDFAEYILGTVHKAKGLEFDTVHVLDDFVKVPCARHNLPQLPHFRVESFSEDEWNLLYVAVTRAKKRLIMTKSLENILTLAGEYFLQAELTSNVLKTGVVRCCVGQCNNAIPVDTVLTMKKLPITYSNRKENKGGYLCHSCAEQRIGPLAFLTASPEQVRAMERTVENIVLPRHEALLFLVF


Tests used:
RAD51 = RAD51 (UniProt Q06609 1-339); experiment: single-molecule FRET
[1] = target: T1, human F-box-containing DNA helicase …; experiment: single-molecule TIRFM; conditions: remark: other sources report otherwise

| kon [1] | Binder | binding result (RAD51) |
| --- | --- | --- |
| – | Cy3/Cy5-labeled poly(dT)60 (oligo g) (ssDNA) DNA: TTTTTTTTTTTTTTTTTTTTTTTTTTTTTTTTTTTTTTTTTTTTTTTTTTTTTTTTTTTT | binds |
| 2.7e+07 M⁻¹ s⁻¹ | human RAD51 protein, Q06609 1-339 (natural protein, here or on the partner: biotin on the underlined lysine of the BAP sequence (…)) MAMQMQLEANADTSVEEESFGPQPISRLEQCGINANDVKKLEEAGFHTVEAVAYAPKKELINIKGISEAKADKILAEAAKLVPMGFTTATEFHQRRSEIIQITTGSKELDKLLQGGIETGSITEMFGEFRTGKTQICHTLAVTCQLPIDRGGGEGKAMYIDTEGTFRPERLLAVAERYGLSGSDVLDNVAYARAFNTDHQTQLLYQASAMMVESRYALLIVDSATALYRTDYSGRGELSARQMHLARFLRMLLRLADEFGVAVVITNQVVAQVDGAAMFAADPKKPIGGNIIAHASTTRLYLRKGRGETRICKIYDSPCLPEAEAMFAINADGVGDAKD | – |
